Test results: the nanobody polyreactivity screen of Harvey et al. (2022)

Assay: yeast display, Sf9 membrane polyspecificity reagent, FACS + sequencing; frameworks hold sequencing errors
Summary of the method: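 Using colony PCR, genes from sorted yeast display clones were amplified, then sequenced on MiSeq at 2 × 250 and filtered by CDR length. The clones had been stained with 10% biotinylated, detergent-solubilized Sf9 membrane reagent for 1 hour at 4 °C and sorted by FACS into low and high (top ~1%) gates on anti-HA and streptavidin fluorescence. Polyreactivity labels come from the gate of origin.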

Sequence	polyreactivity (PSR sort gate)
QVQLVESRGCLVQAGGSLRLSCAASGSTFYPYAMGWYRQAPGKERELVAGITVIDGSTYYADSVKGRFTISRDNAKNTVYLQMNSLKPEDTAVYYCAFDAPNQVQEYGYWGQGTQVTVSS	low polyreactivity
QVQLVESRGFLVQAGGSLRLSCAAYGSSFFTYAMGWYRQAPRKERELVAGINWSGGSTYADSVKGRFTMSRDNAKNTVYLQMNSLKPEDTAVYFCAAKYYSERSRYHYWGQGTQVTVSS	low polyreactivity
QVQLVESRGGIVQAGGSLRLSCAASGRIFQYYAKGWYRQAPGKEWELVAAIISSGGRTYYADSVKGRFTISRDNAKKTVYVQMNSLKPEDTAVYYCNAVLSTRGMDFWGQGTQVTVSS	high polyreactivity
QVQLVESRGGLVQAGGSLPLSCAPSGRIFVRYAMGWYRQAPGKERELVAAISKSGGTTYYADSVKGRFTISRDNAKNTVYLQMNSLKPEDTAVYYCYALVRRRPGYIRYDYWGQGSQVTVSS	low polyreactivity
QVQLVESRGGLVQAGGSLRLRCAASGRIIIAYMAWYRQAPGKERELVAAIDSGASTYYADSVKGRFTISRDNAKNNVYLQMNSLIAEDTAVYYCASDVVYDYGGMDYWGQGTQVTVSS	low polyreactivity
QVQLVESRGGLVQAGGSLRLSCAASGFIFKTNAMGWYRQAPVKERELVAAISNSDGSTYYADSVKGRFTISRDNAKNTVYLQMNSLKPEDTAVYYCAADRTDFWPYDYWGQGTQVTVSS	low polyreactivity
QVQLVESRGGLVQAGGSLRLSCAASGFILSWYAMGWYRQARGKERELVAAISTSGDSTYYADSVKGRFTISRDNAKNTVYVQMNRLKPEDTAVYYCAAVKVSAGTSRGYYYWGPGTQVTVSS	high polyreactivity
QVQLVESRGGLVQAGGSLRLSCAASGFTFERYTMGWYRQAPGKERELVAGINYSGGSTYYADSVKGRFTISRDNAKNTVYLQMNSLKPEDTAVYYCAKDFPYSRYRRRYYYWGQGTQVTVSS	high polyreactivity
QVQLVESRGGLVQAGGSLRLSCAASGFTFRLYAMGWSRQAPGKERELVAALTGRGGNTYYADSVMGRFTISRDNAKNTVYLQRNSLNPEDTAVYYCNRYTQWVGYDYWGQGTQVTVSS	high polyreactivity
QVQLVESRGGLVQAGGSLRLSCAASGFTFSGNARGWYRQAPGKERECVAAISNRSGRTYYADSVKGRFTISRYNAKNTVYLQMNSLKPEDTAVYYCAAESIYTWGIRGDYWGHGTQVTVSS	high polyreactivity
QVQLVESRGGLVQAGGSLRLSCAASGITFRYYAMGWYRQEPGKERELVAAINRGGDSTYYADSVKGRFTISRDIAKNTVYLQMNSLKPVDTAVYYCAASSSNKEYDYWGLGTQVTVSS	high polyreactivity
QVQLVESRGGLVQAGGSLRLSCAASGLIFLGYAMGWYRQAPGKERELVASIRTGGSTSYADSVKGRFTISRDNAKNTVYLQMNSLKPEDTAVYYCAADRGRPNLPGDYWGQGTQVTVSS	low polyreactivity
QVQLVESRGGLVQAGGSLRLSCAASGNTFQPYAMGWYRQAPGKERELVAAITWSGDTTYYADSVKARFTISRDNAKNTVYLQMNSLKPEDTAVYYCYPYFWYPDGYTYDYWGQGTQVTVSS	high polyreactivity
QVQLVESRGGLVQAGGSLRLSCAASGRIFAWNAMGWSRQAPGKERELVAVITSGGNTNYADSVTGRFTISRDNAKNTVYLQLNSLKPEDTAVYYCPKIGYAKRTRFWSHYDYWGQGTQVTVSS	high polyreactivity
QVQLVESRGGLVQAGGSLRLSCAASGRIFSKYAMGWYRQAPGKERELVAGITIAGRTKYADSVKGRFTISRDNAKNTVYLQMNSQKPEDTAVYYCAARAQATGGYGYWGQGTQVTVSS	high polyreactivity
QVQLVESRGGLVQAGGSLRLSCAASGRIIGYNAMGCYRQAPGKERELVAAINSDGSKNYADSVKGRFTISRDNAKNTVYLQMNSLKPEDTAVYYSIKELYPVGDYEYWGQGSQVTVSS	low polyreactivity

Sequence	polyreactivity (PSR sort gate)
QVQLVESRGGLVQAGGSLRLSCAASGRILDLNSMGWYRQAPGKEREFVAAISYSGGRTYYADSVKGRFTISRDNAKNTVYLQMNSLKPEDTAVYYCATDDVWKDGYWGQGTQVTVSS	low polyreactivity
QVQLVESRGGLVQAGGSLRLSCAASGRTFGGYAMGWYRQAPGKERELVAAISTRGGTTYYADSVKGRFTISRDNAKNTVYLQMNSLKPEDTAVYYCAAVYLYYYNRYYYWGQGSQVTVSS	high polyreactivity
QVQLVESRGGLVQAGGSLRLSCAASGRTFQYYAKGWYRQERGKVRELVAAISGSTSRTYYADSVKGRFTISRDNAKNTVYLQMNSLKPEDTAVSYCAAALYRLYITSYYYWGPGTQVTVSS	high polyreactivity
QVQLVESRGGLVQAGGSLRLSCAASGRTFRSYVMGWYRQAPGKERELVAAITTSGGSTYYADSVKGRFTISRDTAKNTVYLQMNSLKPEETAVYYCAAEYYTYTGHYDSWYGDDYWGQGTQVTVSS	high polyreactivity
QVQLVESRGGLVQAGGSLRLSCAASGRTFWYYAMGWYRQAPGKELELVATITGSGGTTYYADSVKGRFTISRDNAKNTVYLQMNSLKPEDTAVYYCAKEQHWYIYGPAEVDYWGQGTQVTVSS	high polyreactivity
QVQLVESRGGLVQAGGSLRLSCAASGRTLKYNVMGWYRQAPGKERELVASITSRGGSTRYADSVKGRFTISRDNAKNTVYLQMNSLKPEDTAVYYCAARYTTARSSYDYWGQGTQVTVSS	high polyreactivity
QVQLVESRGGLVQAGGSLRLSCAASGSIFAIYTMGWYRQAPGKERELVAAITGNGGRTYYADSVKGRFTISRDNAKNTVYLQMNSLKPEDTAVYYCAVVGYHRDYDYWGQGTQVTVSS	low polyreactivity
QVQLVESRGGLVQAGGSLRLSCAASGSIFDVNAMGWYRQAPGKERELVAAISQRGTRTYYADSVKGRFTISRDNAKNTVYLQMNSLKPEDTAVYYCNRGGWREYDSWGQGTQVTVSS	high polyreactivity
QVQLVESRGGLVQAGGSLRLSCAASGSIFGWYAMGWYRPAPGKERELVAAINWSGGRTYYADSVKGRFTISRDNAKNTVYLQMNRLKPEDTAVYYCNKVVPGYSAPKYDYWGQGTQVTVSS	high polyreactivity
QVQLVESRGGLVQAGGSLRLSCAASGSIFNYNAMGCYRQAPGKEREFVAAINQGGTSTYYADSVKGRFTISRDNANHTVYLQMNSLKPEDTAVYYCAALITVYRGSYEYCGQGTQVTVSS	low polyreactivity
QVQLVESRGGLVQAGGSLRLSCAASGSIFVWNAKGWYRQAPGKERELVAAINVRSASTFYADSVKGRFTISRDIAKNTVYLQMNSLKPEDTAVYYCATSYTKQGFRYYYWGQGTQVTVSS	high polyreactivity
QVQLVESRGGLVQAGGSLRLSCAASGSNFYAYAMGWYRQAPGKERELVAAISWSTSSTYADSVKGRFTISRDNAKNTVYLQMNSLKPEDTAVYYCAASPYKGTGAEFDYWGQGTQVTVSS	low polyreactivity
QVQLVESRGGLVQAGGSLRLSCAASGSTFNYYTMGWNRQAPGKERELVATITSGGTTYYADSVKGRFTISRDNAKNTVYLQMNSLKPEDTAVYYCAVQLRRHVDMDYWGQGTQVTVSS	high polyreactivity
QVQLVESRGGLVQAGGSLRLSCAASGSTFTYNAMGWYRQAPGKERELDAAISSDGRTYYADSVKGRFTISRDNAKNTVYLQMNSLQPEDTALYYCAAMYWFYVYPFTEYDYWGQGTQVTVSS	low polyreactivity
QVQLVESRGGLVQAGGSLRLSCAASGSTFTYYAMGWYRQAPGKERELVAAITFRGDSTYYADSVKVRFTISRDNAKNTVYFQMNSLKPEDTAVYYWGQGTQVTVSS	low polyreactivity
QVQLVESRGGLVQAGGSLRLSCAASGSTLSQNAMGWYRQAPGKEREFDADISGSGDSTYYADSVKGRFTISRDNAKNTFYLQMNSLKPEDTAVYYCATPSPHVGLKWEYDYWGQGTQVTVSS	low polyreactivity
